Source: PMC3720892, “Functional Analysis of the Superfamily 1 DNA Helicases Encoded by Mycoplasma pneumoniae and Mycoplasma genitalium”

Tests used:
PcrAs M129 = target: T1, PcrAs M129 (Mycoplasma pneumoniae strain M129, UniProt P75438 1-529); assay: EMSA; up to 200 nM protein; 20 mM Tris-HCl pH 7.5, 1 mM DTT, 50 ng/ul BSA, 8 nM DNA, 15 min at room temperature, no Mg2+ or ATP listed; 6% PAGE in 1x TBE; conditions: protein: recombinant, tags: N-terminal MBP
T1 sequence: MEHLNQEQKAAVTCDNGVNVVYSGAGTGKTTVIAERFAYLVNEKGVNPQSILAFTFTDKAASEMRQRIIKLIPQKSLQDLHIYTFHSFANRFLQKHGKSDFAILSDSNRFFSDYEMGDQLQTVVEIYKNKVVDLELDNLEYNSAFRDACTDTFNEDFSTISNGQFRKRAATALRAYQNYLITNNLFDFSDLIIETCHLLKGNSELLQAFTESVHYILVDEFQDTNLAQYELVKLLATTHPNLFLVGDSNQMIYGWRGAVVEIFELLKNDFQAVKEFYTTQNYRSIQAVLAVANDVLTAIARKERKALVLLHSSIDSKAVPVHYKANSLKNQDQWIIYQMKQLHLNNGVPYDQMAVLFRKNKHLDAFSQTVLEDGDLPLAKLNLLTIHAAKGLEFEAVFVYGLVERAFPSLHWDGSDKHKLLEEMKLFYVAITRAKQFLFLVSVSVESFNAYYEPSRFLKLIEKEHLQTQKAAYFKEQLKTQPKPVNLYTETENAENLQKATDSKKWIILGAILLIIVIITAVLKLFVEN

PcrA Mpn [1] = target: T2, PcrA Mpn (Mycoplasma pneumoniae strain M129, UniProt P75437 1-715); assay: EMSA; 22-200 nM protein; 20 mM Tris-HCl pH 7.5, 1 mM DTT, 50 ng/ul BSA, 8 nM DNA, 15 min at room temperature, no Mg2+ or ATP listed; 6% PAGE in 1x TBE; conditions: protein: recombinant; tags: N-terminal MBP; label: 5' 6-FAM
T2 sequence: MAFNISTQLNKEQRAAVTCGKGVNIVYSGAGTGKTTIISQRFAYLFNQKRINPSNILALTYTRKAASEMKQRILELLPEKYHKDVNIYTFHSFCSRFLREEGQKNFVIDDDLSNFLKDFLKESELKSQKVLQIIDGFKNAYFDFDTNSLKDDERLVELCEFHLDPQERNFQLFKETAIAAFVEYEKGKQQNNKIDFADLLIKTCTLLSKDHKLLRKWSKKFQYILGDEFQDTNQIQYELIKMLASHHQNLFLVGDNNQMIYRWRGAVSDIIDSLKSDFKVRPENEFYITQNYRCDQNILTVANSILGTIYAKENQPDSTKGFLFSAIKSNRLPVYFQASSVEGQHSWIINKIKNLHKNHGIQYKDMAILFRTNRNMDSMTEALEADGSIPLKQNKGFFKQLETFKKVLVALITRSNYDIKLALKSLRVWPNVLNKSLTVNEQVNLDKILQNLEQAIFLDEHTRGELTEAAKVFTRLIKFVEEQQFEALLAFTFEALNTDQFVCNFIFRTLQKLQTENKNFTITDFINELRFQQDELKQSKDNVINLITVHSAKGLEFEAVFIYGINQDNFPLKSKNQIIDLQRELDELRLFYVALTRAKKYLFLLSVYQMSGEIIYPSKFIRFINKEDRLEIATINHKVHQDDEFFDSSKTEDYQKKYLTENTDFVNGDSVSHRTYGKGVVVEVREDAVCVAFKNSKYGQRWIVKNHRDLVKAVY

PcrA Mge [2] = target: T3, PcrA Mge (Mycoplasma genitalium strain G37, UniProt P47486 1-703); assay: as above; conditions: protein: recombinant; tags: N-terminal MBP; label: 5' 6-FAM
T3 sequence: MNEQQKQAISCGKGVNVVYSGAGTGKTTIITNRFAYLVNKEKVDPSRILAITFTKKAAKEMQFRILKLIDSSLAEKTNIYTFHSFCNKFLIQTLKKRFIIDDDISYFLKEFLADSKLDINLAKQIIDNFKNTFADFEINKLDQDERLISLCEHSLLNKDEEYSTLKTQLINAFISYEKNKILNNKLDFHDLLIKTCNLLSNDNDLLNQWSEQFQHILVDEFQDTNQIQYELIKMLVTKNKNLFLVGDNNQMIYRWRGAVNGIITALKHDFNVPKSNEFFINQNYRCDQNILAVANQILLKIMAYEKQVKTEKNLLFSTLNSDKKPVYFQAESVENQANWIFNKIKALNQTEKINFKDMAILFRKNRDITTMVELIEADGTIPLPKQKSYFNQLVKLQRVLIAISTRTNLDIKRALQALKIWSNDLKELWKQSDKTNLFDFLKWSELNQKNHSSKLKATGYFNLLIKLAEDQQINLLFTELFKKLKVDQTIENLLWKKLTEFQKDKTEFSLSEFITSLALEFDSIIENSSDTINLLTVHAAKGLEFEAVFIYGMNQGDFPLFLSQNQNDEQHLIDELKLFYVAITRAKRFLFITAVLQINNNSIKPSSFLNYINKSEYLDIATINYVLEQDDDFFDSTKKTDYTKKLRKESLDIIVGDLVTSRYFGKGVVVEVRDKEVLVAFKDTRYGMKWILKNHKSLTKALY

PcrA Mpn [3] = target: T2, PcrA Mpn; assay: EMSA; 22-200 nM protein; most complexes did not enter gel; 20 mM Tris-HCl pH 7.5, 1 mM DTT, 50 ng/ul BSA, 8 nM DNA, 15 min at room temperature, no Mg2+ or ATP listed; 6% PAGE in 1x TBE; conditions: protein: recombinant; tags: N-terminal MBP; label: 5' 6-FAM on one strand; 3' overhang 24 nt
PcrA Mge [4] = target: T3, PcrA Mge; assay: as above; conditions: protein: recombinant; tags: N-terminal MBP; label: 5' 6-FAM on one strand; 3' overhang 24 nt
PcrA Mpn [5] = target: T2, PcrA Mpn; assay: EMSA; 22-200 nM protein; discrete complex III; 20 mM Tris-HCl pH 7.5, 1 mM DTT, 50 ng/ul BSA, 8 nM DNA, 15 min at room temperature, no Mg2+ or ATP listed; 6% PAGE in 1x TBE; conditions: protein: recombinant; tags: N-terminal MBP; label: 5' 6-FAM on one strand; 5' overhang 24 nt
PcrA Mge [6] = target: T3, PcrA Mge; assay: EMSA; 22-200 nM protein; discrete complex IV; 20 mM Tris-HCl pH 7.5, 1 mM DTT, 50 ng/ul BSA, 8 nM DNA, 15 min at room temperature, no Mg2+ or ATP listed; 6% PAGE in 1x TBE; conditions: protein: recombinant; tags: N-terminal MBP; label: 5' 6-FAM on one strand; 5' overhang 24 nt

B1: oligonucleotide 1 (ssDNA)
DNA: CAAAGTAAGAGCTTCTCGAGCTGCGCAAGGATAGGTCGAATTTTCTCATTTT
binding result (PcrAs M129; label: 5' 6-FAM): no binding | binding result (PcrA Mpn [1]): binds | binding result (PcrA Mge [2]): binds

B2: substrate c (dsDNA)
DNA 1: CAAAGTAAGAGCTTCTCGAGCTGCGCAAGGATAGGTCGAATTTTCTCATTTT
DNA 2: AAAATGAGAAAATTCGACCTATCCTTGCGCAGCTCGAGAAGCTCTTACTTTG
binding result (PcrAs M129; label: 5' 6-FAM on one strand, blunt): no binding

B3: substrate a (dsDNA)
DNA 1: CAAAGTAAGAGCTTCTCGAGCTGCGCAAGGATAGGTCGAATTTTCTCATTTT
DNA 2: AAAATGAGAAAATTCGACCTATCCTTGCGCAGCTCGAGAAGCTCTTACTTTGATCGGATCCATGAATGAACAACAA
binding result (PcrAs M129; label: 5' 6-FAM on one strand, 3' overhang 24 nt): no binding | binding result (PcrA Mpn [3]): binds | binding result (PcrA Mge [4]): binds

B4: substrate b (dsDNA)
DNA 1: CAAAGTAAGAGCTTCTCGAGCTGCGCAAGGATAGGTCGAATTTTCTCATTTT
DNA 2: ATCGGATCCATGAATGAACAACAAAAAATGAGAAAATTCGACCTATCCTTGCGCAGCTCGAGAAGCTCTTACTTTG
binding result (PcrA Mpn [5]): binds | binding result (PcrAs M129; label: 5' 6-FAM on one strand, 5' overhang 24 nt): no binding | binding result (PcrA Mge [6]): binds
